# Assay results published in patent US20020002269A1, “ARTEMIN, A NEUROTROPHIC FACTOR” (priority 1998, published 2002).
# B1: GDNF: recombinant human mature GDNF obtained from Genentech (protein, UniProt P39905 78-211, looked up)
# Glial cell line-derived …: SPDKQMAVLPRRERNRQAAAANPENSRGKGRRGQRGKNRGCVLTAIHLNVTDLGLGYETKEELIFRYCSGSCDAAETTYDKILKNLSRNRRLVSDKVGQACCRPIAFDDDLSFLDDNLVYHILRKHSAKRCGCI
# Assays:
# [1] = test system: superior cervical ganglion (SCG) neurons; test: Survival of cultured superior cervical ganglion neurons after NGF withdrawal; type: cell-based, rat; conditions: 50 ng/ml, FIG. 7E
# Description: Each GDNF ligand family member consisted of the human mature amino acid sequence and was produced by standard recombinant DNA methods. Recombinant GDNF, neurturin and persephin were obtained from Genentech while recombinant artemin was produced as described in Example 3.
# The cultures were performed using standard methods described elsewhere (Kotzbauer et al., Neuron 12:763-773, 1994; Kotzbauer et al., Nature 384:467-470, 1996; Milbrandt et al., Neuron 20:245-253, 1998). […] Cultures were maintained for 3 days, after which they were fixed in 4% paraformaldehyde and stained with toluidine blue, and surviving neurons were counted. For nodose ganglion and dorsal root ganglion neuron cultures, dissociated neurons were plated directly into NGF (for dorsal root ganglia), or BDNF (for nodose ganglia, 100 ng/ml) or one of the GDNF ligands in serum-containing medium (AM50 with anti-NGF antibodies), and cells surviving after 3 days in culture were counted as above. Trigeminal ganglia were dissected, dissociated, and plated directly into medium containing NGF or the indicated GDNF ligands, and the number of surviving cells was assessed after 3 days in vitro. […]
# [2] = molecular target: T1, RET (Homo sapiens, UniProt P07949); test: Western blot of RET phosphorylation and MAP kinase activation in NBL-S cells, with or without PI-PLC; type: cell-based; conditions: FIG. 9B
# T1 construct: both the SH-SY5Y and NBL-S cell lines express GFRα1, GFRα2, and GFRα3, as well as RET; endogenous in cells; host or cells: NBL-S neuroblastoma cells
# T1 sequence (P07949 29-1114): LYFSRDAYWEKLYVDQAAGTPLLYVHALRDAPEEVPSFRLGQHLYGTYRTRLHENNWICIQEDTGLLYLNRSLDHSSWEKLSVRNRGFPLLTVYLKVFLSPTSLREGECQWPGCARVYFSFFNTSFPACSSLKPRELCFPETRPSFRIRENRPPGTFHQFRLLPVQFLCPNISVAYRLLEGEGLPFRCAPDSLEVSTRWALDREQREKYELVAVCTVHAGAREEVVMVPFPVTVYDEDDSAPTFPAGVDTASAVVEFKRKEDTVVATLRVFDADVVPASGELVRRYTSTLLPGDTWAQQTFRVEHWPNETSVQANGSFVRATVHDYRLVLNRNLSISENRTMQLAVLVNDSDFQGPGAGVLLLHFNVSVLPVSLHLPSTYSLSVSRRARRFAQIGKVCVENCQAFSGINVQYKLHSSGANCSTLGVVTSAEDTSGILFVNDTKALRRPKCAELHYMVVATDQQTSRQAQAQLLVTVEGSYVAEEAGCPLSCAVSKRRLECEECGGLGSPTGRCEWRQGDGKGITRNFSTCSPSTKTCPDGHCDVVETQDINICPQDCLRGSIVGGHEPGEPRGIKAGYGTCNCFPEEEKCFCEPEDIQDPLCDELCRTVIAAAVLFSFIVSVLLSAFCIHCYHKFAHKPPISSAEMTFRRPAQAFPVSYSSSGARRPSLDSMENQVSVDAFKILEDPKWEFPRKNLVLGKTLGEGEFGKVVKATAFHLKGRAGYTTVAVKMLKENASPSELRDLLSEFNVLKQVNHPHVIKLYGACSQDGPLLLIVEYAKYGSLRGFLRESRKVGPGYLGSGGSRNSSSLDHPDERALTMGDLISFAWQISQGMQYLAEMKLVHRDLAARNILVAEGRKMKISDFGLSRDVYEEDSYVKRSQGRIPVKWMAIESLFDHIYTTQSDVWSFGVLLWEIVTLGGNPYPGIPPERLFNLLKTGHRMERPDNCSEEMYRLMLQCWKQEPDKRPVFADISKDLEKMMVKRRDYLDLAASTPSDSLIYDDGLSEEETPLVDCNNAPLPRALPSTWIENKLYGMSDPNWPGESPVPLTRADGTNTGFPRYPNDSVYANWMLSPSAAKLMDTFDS
# Description: In brief, SCG neurons were dissected from postnatal day 1 (P1) rats and maintained in NGF-containing medium for 5 days, after which they were deprived of NGF by switching to NGF-free medium in the presence of anti-NGF antibodies. After 2 hours without NGF, neurons were switched to medium containing NGF, GDNF or artemin at 50 ng/ml for 20 minutes. Cells were washed in cold PBS, and collected in immunoprecipitation buffer (1 mM EDTA/1 mM EGTA/0.2 mM NaVO3/1 mM Pefabloc/1 uM pepstatin A/10 ug/ml leupeptin/2 ug/ml aprotinin/1% Triton X-100/0.5% Nonidet P-40/150 mM NaCl in 10 mM Tris, pH 7.4). The lysates were incubated with 30 μl agarose-conjugated anti-phosphotyrosine antibodies (Calbiochem) at 4° C. for 1 hr. Beads were then washed three times with immunoprecipitation buffer, resuspended in SDS sample buffer, and boiled for 5 min. Samples were separated using SDS-PAGE, and transferred to nitrocellulose membranes. Membranes were blocked for 1 hr at 25° C. in TBS containing 5% dry milk, incubated overnight 4° C. with a 1:300 dilution of anti-Ret antibody (C-19; Santa Cruz), then washed (3× in TBS containing 0.1% Tween-20) and incubated in a 1:10,000 dilution of anti-rabbit antibodies conjugated to HRP (Jackson Immunoresearch). Membranes were washed 3×, incubated with SuperSignal ULTRA (Pierce) for 5 minutes, then exposed to film. For MAP kinase (MAPK) assays, a portion of the total lysate wars removed before immunoprecipitation, separated by SDS-PAGE, and immunoblotted using an anti-phospho-MAP-kinase antibody (New England Biolabs).
# NBL-S cells were plated at 3×10^5 cells/well in 6-well plates, and after 46 hr switched to low-serum (0.5%) medium for 2 hr, and then stimulated with NGF, GDNF or artemin (50 ng/ml) for 20 min. Cells were then collected and analyzed as above. For PI-PLC treatment, a parallel set of NBL-S cells were plated as above but treated with 500 mU/ml of PI-PLC (Boehringer-Mannheim) for 1 hr, and washed with PBS and stimulated with factors as above.
molecule,measurement,setting,value
"artemin: recombinant mature human artemin (FIG. 3A, SEQ ID NO:3) with 8-histidine tag, produced in E. coli; GDNF family neurotrophic factor",survival of SCG neurons,"[1]; 3 days after 5 days in NGF, anti-NGF antibodies",supported the survival of SCG neurons
same,number of SCG neurons supported compared with GDNF or neurturin,[1],fewer neurons were supported by artemin than by GDNF or neurturin
same,downstream signaling (activation of the MAP kinase pathway) in NBL-S cells,[2]; 50 ng/ml for 20 min,effective in eliciting downstream signaling
same,tyrosine-phosphorylation of RET in NBL-S cells,[2]; 50 ng/ml for 20 min,induced tyrosine-phosphorylation of RET
same,effect of PI-PLC pretreatment on signaling in NBL-S cells,"[2]; 500 mU/ml PI-PLC for 1 hr, then factor 50 ng/ml for 20 min",abolished artemin's ability to activate RET and all downstream signaling
B1,tyrosine-phosphorylation of RET in NBL-S cells,[2]; 50 ng/ml for 20 min,induced tyrosine-phosphorylation of RET
